Measurements from the RNAGym collection of RNA variant scans (doi:10.1101/gr.219683.116).

B1: mRNA-splicing (parent)
chain: AGUUGCUGCUGGGAGCUCCAGCACAGUGAAAUGGACAGAAGGGCAGAGCAA

Variants of: B1
Assay: exon inclusion enrichment index; higher = more inclusion; WT1 exon 5 minigene, HEK293

In order of falling “exon inclusion enrichment index” value:
1. C6A U7C C9A U10C A45G G46A  4.93
2. G5C C6G U7C U10C G42A G43A  4.65
3. C6A U7C C9A U10C A23C C24G  4.61
4. G5C C6G U7C U10C U17C C18G  4.56
5. C6A U7C C9A U10C G43A C44A  4.49
6. C6A U7C C9A U10C A31C U32C  4.42
7. G5C C6G U7C U10C G42A  4.32
8. G5A U7C G8A U10C G42A G43C  4.19
9. G2U U3G G5A U7C G8A U10C  4.12
10. C6A U7C C9A U10C A25G G26C  4.03
11. C6A U7C C9A U10C C22G  3.9
12. C6A U7C C9A U10C C18G C19G  3.85
13. G5C C6G U7C U10C A31C  3.8
14. G5A U7C G8A U10C A40G G41C  3.76
15. C6A U7C C9A U10C G42U G43U  3.65
16. G5C C6G U7C U10C G26A U27A  3.45
17. G5A U7C G8A U10C G26A U27C  3.43
18. G5C C6U G8C C9U U10C C44G A45C  3.14
19. C6A U7C C9A U10C G15U C16G  3.06
20. C6A U7C C9A U10C G13A A14G  3
21. G5A U7C G8A U10C G48A  2.99
22. G5C C6G U7C U10C A31C U32A  2.89
23. G5C C6G U7C C9G U10A  2.85
24. C6A U7C C9A U10C G13C  2.83
25. C6A U7C C9A U10C G38A A39G  2.68
26. G5C C6G U7C U10C A47C G48U  2.62
27. C6A U7A C9A U10A A25C  2.61
28. G5C C6G U7C U10C G33C G34A  2.48
29. C6A U7C G8U C9U U10C  2.41
30. G5A U7C G8A U10C G48C  2.4
31. U10G G11U  2.4
32. G5A U7C G8A U10C G26A U27A  2.4
33. G5C C6U G8C C9U U10C A23U C24G  2.38
34. G5A U7C G8A U10C C18G  2.35
35. C6A U7C G8A C9U U10C  2.34
36. G5C C6G U7C U10C G33C G34C  2.29
37. G5C C6G U7C U10A G11A  2.25
38. C6A U7C G8U C9A U10C  2.22
39. C6A U7C C9A U10C G38A  2.2
40. G5C C6U G8C C9U U10C A20U  2.17
41. C6G U7C G8A U10C  2.05
42. C6A U7A C9A U10A G11C G12A  1.98
43. G5A U7C G8A U10C A40U  1.97
44. C6A U7A C9A U10A G11C G12U  1.91
45. G5A U7C G8A U10C C16A U17C  1.83
46. G5A U7C G8A U10C A20C  1.81
47. G5A U7C G8A U10C A40G G41U  1.79
48. G5C C6G U7C U10C C24U  1.76
49. G5C C6G U7C U10C A30G A31U  1.7
50. G5A U7C G8A U10C G34C A35G  1.69
51. C6A U7A C9A U10A G13C A14U  1.56
52. U4C G5A C6U G8C C9U U10C  1.56
53. G5C C6U G8C C9U U10C G28C  1.55
54. G5C C6U G8C C9U U10C A23U  1.39
55. G5A U7C G8A U10C C19G A20G  1.34
56. G5C U7G U10C  1.34
57. C22U  1.27
58. C6A U7A C9A U10G G11A  1.24
59. C6A U7A C9A U10A A47C  1.15
60. G5C C6U G8C C9U U10C G33C G34C  1.12
61. G5A U7C G8A U10C A40G G41A  1.12
62. G5C C6U G8U U10C  1.11
63. G5A U7C G8A U10C C36A A37G  1.06
64. G5C C6U G8C C9U U10C A31U U32G  1.04
65. G5C C6G U7C C9U U10G  1.02
66. C6A U7A C9A U10A G41C G42A  1
67. G5A U7C G8A U10C G33U  0.998
68. C6A U7C C9A U10C G33A G34U  0.964
69. G5C C6U G8C C9U U10C C36A A37U  0.939
70. C6A U7A C9A U10A A23C C24A  0.907
71. G5C C6U G8C C9U U10C A40C G41U  0.895
72. G5U U7G G8U C9U  0.893
73. G5A U7C G8A U10C A35G  0.89
74. G5C C6U G8C C9U U10C C19A  0.881
75. G5C C6A U7C G8A G11U  0.768
76. C6A U7C C9A U10C C18U C19A  0.757
77. G41C G42C  0.703
78. G5C C6A U7C G8A U10A A23C C24G  0.664
79. G5C C6U G8C C9U U10C A37G G38U  0.627
80. C6A U7A C9A U10A C22A  0.593
81. C6A U7A C9A U10A A45C G46C  0.542
82. U3C U4C G5C C6U G8C C9U U10C  0.521
83. G5C C6U G8C U10A  0.518
84. G5A C6U U7A G8U C9A G26A U27C  0.504
85. C6A U7A C9A U10A C16A U17A  0.501
86. C6A U7A C9A U10A C36U A37C  0.478
87. A23U  0.475
88. G11C G12A  0.472
89. G5C C6A U7C G8A U10A G42C G43A  0.455
90. G5A C6U U7A G8U C9A G26C U27G  0.442
91. G5C C6A U7C G8A U10A G46A A47C  0.439
92. G5C C6A U7C G8A U10A G13A A14G  0.424
93. C6A U7A C9A U10A A39G  0.404
94. C6A U7C C9A U10C G38U A39U  0.32
95. C6A U7A C9A U10A A20C G21U  0.286
96. G5A U7C G8A U10C A35C C36U  0.244
97. G5C C6A U7C G8A U10A A47C G48C  0.224
98. G5C C6U G8C C9U U10C U32G  0.212
99. G5C C6A U7C G8A U10A G46C A47C  0.209
100. U3C U4C  0.208
101. G5C C6U G8C C9U U10C G33A  0.198
102. C6A U7A C9A U10A C16G  0.188
103. C6A U7A C9A U10A A45U G46U  0.185
104. G5U U7C G8U C9U  0.184
105. G5U G8U C9U G15C C16G  0.179
106. C6U U7C  0.178
107. G5U G8U C9U A25U G26A  0.176
108. G5U G8U C9U G43U  0.16
109. G38A A39C  0.13
110. G5C C6U G8C C9U U10C G12A G13U  0.128
111. G5C C6G U7C U10C G12C G13U  0.128
112. G5A U7C G8A U10C G38U A39U  0.126
113. G5C C6A U7C G8A U10A C22A A23G  0.124
114. G5U G8U C9U C24A  0.116
115. G5C C6A U7C G8A U10A C24A  0.105
116. G5C C6A U7C G8A U10A G41A G42A  0.101
117. G5U G8U C9U C44U A45U  0.0921
118. G5A C6U U7A G8U C9A A37C G38A  0.0896
119. G13U A14G  0.0891
120. G5A C6U U7A G8U C9A C36A A37C  0.0847
121. G5A C6U U7A G8U C9A G11U  0.0798
122. G5A C6U U7A G8U C9A A37C G38C  0.0761
123. G5A C6U U7A G8U C9A  0.074
124. G5C C6A U7C G8A U10A A47U G48A  0.071
125. G5A C6U U7A G8U C9A C16A U17C  0.0702
126. U27C G28A  0.0654
127. G5A C6U U7A G8U C9A C18G  0.0618
128. C6A U7A C9A U10A G33A G34U  0.0565
129. C6A U7A C9A U10A G33A G34A  0.0545
130. G5U G8U C9U U32C G33U  0.0499
131. G5U G8U C9U A14G G15A  0.0466
132. G5A C6U U7A G8U C9A C36U A37U  0.0384
133. G5U G8U C9U C16U U17C  0.0384
134. G5C C6A U7C G8A U10A G41U G42A  0.0336
135. G5C C6A U7C G8A U10A A29G A30C  0.0319
136. U3C G5C C6A U7C G8A U10A  0.0284
137. G5U G8U C9U A30G A31U  0.0253
138. G5U G8U C9U G13U A14U  0.0249
139. G13U A14U  0.0193
140. G5C C6A U7C G8A U10A C16A U17G  0.0171
141. G5U G8U C9U G11U G12C  0.0157
142. G5U G8U C9U G43U C44A  0.0152
143. G5U G8U C9U A29U A30U  0.0146
144. G5A C6U U7A G8U C9A G13U A14U  0.0119
145. G5A C6G U7G C9A U10C G11U  0.0108
146. G5A C6G U7G C9A G13C A14C  0.00967
147. G28U A29U  0.00946
148. G5A C6U U7A G8U C9A A29G A30U  0.00704
149. G5U G8U C9U G12C G13C  0.00507
150. G5A C6G U7G C9A U32C G33C  0.00477
151. G5A C6G U7G C9A G13U A14C  0.00403
152. G5A C6G U7G C9A A25C G26A  0.00349
153. G5A C6G U7G C9A C16A U17C  0.00344
154. G5A C6G U7G C9A G11U G12C  0.00339
155. A35G C36U  0.00277
156. G5A C6G U7G C9A G34A  0.00215
157. G5A C6G U7G C9A G43C  0.00197
158. G5A C6G U7G C9A A45G G46U  0.00135
159. G5A C6G U7G C9A C19A A20C  0.00131
160. G5A C6G U7G C9A C19U  0.00126
161. G5A C6G U7G C9A C24A A25G  0.0011
162. G5A C6G U7G G8C C9U  0.00108
163. G5A C6G U7G C9A C18U C19A  0.00106
164. G5A C6G U7G C9A A20C G21U  0.00104
165. G5A C6G U7G C9A G21A C22A  0.000944
166. G5A C6G U7G C9A A23U C24A  0.000776
167. G5A C6G U7G C9A G13U A14G  0.00052
